One experiment addresses T1, EphB1 (Homo sapiens, UniProt P54762).
T1 construct: Ligand stimulation and immunoprecipitation of endogenous EphB receptors; endogenous in cells; host or cells: HRMEC (human); P19 (murine teratocarcinoma) in part of the results
T1 sequence (P54762 18-984): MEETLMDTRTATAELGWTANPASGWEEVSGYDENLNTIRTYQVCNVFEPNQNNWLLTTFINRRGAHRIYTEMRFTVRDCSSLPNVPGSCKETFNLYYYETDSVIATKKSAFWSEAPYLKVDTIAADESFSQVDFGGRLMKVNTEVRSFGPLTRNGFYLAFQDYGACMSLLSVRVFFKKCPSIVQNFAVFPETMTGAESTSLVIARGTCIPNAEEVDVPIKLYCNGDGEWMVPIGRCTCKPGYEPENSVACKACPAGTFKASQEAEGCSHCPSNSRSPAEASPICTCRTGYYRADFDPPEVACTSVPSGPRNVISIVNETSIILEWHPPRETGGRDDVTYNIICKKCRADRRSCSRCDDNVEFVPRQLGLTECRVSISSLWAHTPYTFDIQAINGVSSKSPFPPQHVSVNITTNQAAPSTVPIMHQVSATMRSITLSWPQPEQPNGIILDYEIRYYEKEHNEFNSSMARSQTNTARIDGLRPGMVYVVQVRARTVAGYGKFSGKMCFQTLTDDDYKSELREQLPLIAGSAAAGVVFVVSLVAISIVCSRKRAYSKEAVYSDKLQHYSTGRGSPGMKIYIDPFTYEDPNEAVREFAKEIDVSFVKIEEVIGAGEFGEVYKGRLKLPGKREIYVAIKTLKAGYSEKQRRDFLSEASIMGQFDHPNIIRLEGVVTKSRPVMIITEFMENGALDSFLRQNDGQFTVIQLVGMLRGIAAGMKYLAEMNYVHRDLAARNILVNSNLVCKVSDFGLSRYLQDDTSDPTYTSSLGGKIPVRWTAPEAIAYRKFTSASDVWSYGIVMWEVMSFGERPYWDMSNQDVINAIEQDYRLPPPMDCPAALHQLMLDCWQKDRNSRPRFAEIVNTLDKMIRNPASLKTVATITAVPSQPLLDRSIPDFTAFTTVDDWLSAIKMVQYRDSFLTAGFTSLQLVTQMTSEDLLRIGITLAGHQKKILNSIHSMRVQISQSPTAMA
The experiment in a line: EphB1 immunoprecipitation and phosphotyrosine immunoblot. It counts as cell-based. To be noted: in each cell type (HRMEC, HUVEC). In general terms: Immunoblotting shows a protein as a band on a membrane.

The subject of experiment [1] is HRMEC. The experiment in a line: Endothelial assembly into capillary-like structures (HRMEC). To be noted: Matrigel-coated surfaces, defined medium; vascular bed comparison. It is filed as cell-based, human. As for the experimental part: Endothelial assembly into capillary-like structures. Twelve well plates (Falcon) were coated with thin layers of Matrigel. HRMEC were plated at a density of 4×10^4 cells/well in DME containing 1% fetal bovine serum. Indicated agonists, control peptides, alone, or in combination with the EphB1/Fc antagonist (1000 ng ml^−1) (FIG. 5) were added at the time of plating. Cells were incubated at 37° C. for 8 h and photographed using phase microscopy (magnification 100×) (Diaphot-TMD, Nikon).

In experiment [2] the test system is HUVEC. Put plainly: Two dimensional capillary-like assembly assay (HUVEC). It is filed as cell-based, human. To be noted: Matrigel-coated surfaces, defined medium; vascular bed comparison. The procedure: (§1) For these studies, HRMEC or HUVEC were plated on Matrigel-coated surfaces in defined medium in a two dimensional capillary-like assembly assay. Ephrin-B1 promoted capillary-like assembly of HRMEC, but not HUVEC, while ephrin-A1 promoted assembly of HUVEC but not HRMEC, in identical media at concentrations appropriate for their respective affinities for EphB1 and EphA2. In each cell type, ephrin-B1 and ephrin-A1 promoted tyrosine phosphorylation of 130 kDa EphB1 and EphA2, both of which are expressed in each system.

For another experiment, the system named is HEK293 cells. Put plainly: Solid phase cell attachment assay (HEK293). It counts as cell-based, human. As for the experimental part:
Cell culture and transfection. Human embryonic kidney cells, HEK293, were passaged in minimum essential medium (Life Technologies) supplemented with 10% fetal bovine serum (Hyclone Laboratories, Logan, Utah). HRMEC were cultured as described (12). HEK293 cells were transfected with Lipofectamine Plus (Life Technologies) as described by the manufacturer. The expression constructs pSRα-hEphB1-HA, pSRα-hEphB1-HA-K652R, pSRα-hEphB1-HA-Y596F and pSRα-hEphB1-HA-Y929F have been described previously (45,46). Cell attachment assays were performed 48 hours after transfection.
Solid phase cell attachment assays. Forty-eight-well plates (Falcon) were coated with a layer of nitrocellulose (Schleicher & Schuell) and allowed to air dry as described (47). Coated wells were incubated overnight at 4° C. with PBS containing matrix proteins at the indicated concentrations alone (no addition, NA) or in combination with dimeric EphrinB1/Fc. Two hours prior to assay, wells were washed twice then blocked at 37° C. with 1% BSA. Serum starved cells were harvested in 2 mM EDTA in PBS (HEK293) or recovered by trypsinization (HRMEC), washed twice in serum free medium containing 1% BSA, then plated at a density of 0.7-1×10^5 cells per well. […] Adherent cells were fixed with 2% glutaraldehyde, stained with 0.5% crystal violet (in EtOH), and quantified by OD reading at 570 nm. […]

The test system of another experiment is αvβ3 integrin. Put plainly: Surface biotinylation and integrin immunoprecipitation (endothelial cells). To be noted: 60 min on coated dishes. It is filed as cell-based, human. As for the experimental part:
(§2) Surface biotinylation and integrin immunoprecipitation. To determine if surface integrin expression was altered by transfection and/or exposure to ephrinB1/Fc, cells were biotinylated for 30 min at 4° C. with 0.5 mg/ml Sulfo-NHS-LC-Biotin (Pierce, Rockford, Ill.) before plating onto 60 mm dishes coated with nitrocellulose, fibrinogen and EphrinB1/Fc. After a 60 min incubation at 37° C., cells were harvested in WG buffer (15) and immunoprecipitation performed with 2 ug of the integrin antibodies used in the competition experiments. After SDS-PAGE (non-reducing conditions) and Western blotting, biotinylated proteins were detected by enhanced chemiluminescence using ECL Western Blotting Detection (Amersham).

The next experiment concerns α5β1 integrin. Put plainly: Surface biotinylation and integrin immunoprecipitation (HEK293). It counts as cell-based, human. As to conditions: 60 min on coated dishes. The procedure:
as §2

In experiment [3] the test system is HRMEC. As to conditions: background art; cited from earlier work.
Experiment [4] concerns HUVEC. To be noted: background art; cited from earlier work.
For the next experiment, the target named is T2, EphA2 (Homo sapiens, UniProt P29317).
T2 construct: 130 kDa EphB1 and EphA2, both of which are expressed in each system; endogenous in cells; host or cells: HRMEC and HUVEC
The experiment in a line: EphA2 tyrosine phosphorylation in endothelial cells. It is filed as cell-based. As to conditions: in each cell type (HRMEC, HUVEC). The procedure:
as §1

B1: Ephrin-B1: transmembrane ligand of EphB subclass receptors (protein)
chain: LAKNLEPVSWSSLNPKFLSGKGLVIYPKIGDKLDIICPRAEAGRPYEYYKLYLVRPEQAAACSTVLDPNVLVTCNRPEQEIRFTIKFQEFSPNYMGLEFKKHHDYYITSTSNGSLEGLENREGGVCRTRTMKIIMKVGQDPNAVTPEQLTTSRPSKEADNTVKMATQAPGSRGSLGDSDGKHETVNQEEKSGPGASGGSSGDPDGFFNSK
As for B1, the “tyrosine phosphorylation of 130 kDa EphB1” value with EphB1 is “promoted”. The “capillary-like assembly of HRMEC” value in the experiment with HRMEC [1] is on record as “promoted”. Moreover, the “capillary-like assembly of HUVEC” value with HUVEC [2] is reported as “not”. The “attachment to fibrinogen of HEK293 cells transiently expressing EphB1” value with HEK293 cells (48 hours after transfection) is given as “increases in attachment”. The “attachment to fibrinogen or RGD peptide of untransfected HEK293 cells” value in the experiment on HEK293 cells (basal conditions, no endogenous EphB1 or EphB2) is “no ephrin-B1 dependent change”. Moreover, in the experiment on αvβ3 integrin, the “surface expression of endothelial αvβ3 integrin” value is reported as “did not increase”. Moreover, the “surface expression of HEK293 α5β1 integrin” value with α5β1 integrin was “did not increase”. In addition, the “assembly of HRMEC into capillary-like structures (reference 8)” value in the experiment on HRMEC [3] was “promotes”. In the experiment on HUVEC [4], the “capillary-like assembly of HUVEC (reference 8)” value is recorded as “not responsive”.

B2: ephrin-A1: GPI-linked membrane protein, primary ligand for EphA2 (Eck) (protein)
chain: DRHTVFWNSSNPKFRNEDYTIHVQLNDYVDIICPHYEDHSVADAAMEQYILYLVEHEEYQLCQPQSKDQVRWQCNRPSAKHGPEKLSEKFQRFTPFTLGKEFKEGHSYYYISKPIHQHEDRCLRLKVTVSGKITHSPQAHDNPQEKRLAADDPEVRVLHSIGHS
In the case of B2, in the experiment on HRMEC [1], the “capillary-like assembly of HRMEC” value is “not”. For the same molecule, in the experiment with HUVEC [2], the “capillary-like assembly of HUVEC” value was “promoted”. In addition, in the experiment with EphA2, the “tyrosine phosphorylation of 130 kDa EphA2” value is “promoted”. In addition, the “assembly of HRMEC into capillary-like structures (reference 8)” value in the experiment with HRMEC [3] is recorded as “no capillary-assembly activity”. The “capillary-like assembly of HUVEC (reference 8)” value with HUVEC [4] is “promotes”.

Source of the values: patent US20030157712A1, “Methods for determining cell responses through EphB receptors” (priority 1997, published 2003).
